Laboratory results: article PMC2582589 (Structure (London, England : 1993), 2008)
Where two headings read alike, the source gives them in different places. Square brackets hold non-standard residues; d marks the D form. Ends that are not written are not given here. Lys(Me3) = C[N+](C)(C)CCCC[C@H](N)C(=O)O

Tests used:
[1] = biological target: T1, Eaf3 chromo barrel domain (1–113 aa) (Saccharomyces cerevisiae, UniProt Q12432); experiment: 15N-1H HSQC NMR titration of 15N-labeled Eaf3; format: binding; conditions: for affinity for Eaf3 (in words): HSQC titration, pH 6.7; for affinity relative to other methylated ligands (in words): from KD comparison
T1 sequence (Q12432 1-113): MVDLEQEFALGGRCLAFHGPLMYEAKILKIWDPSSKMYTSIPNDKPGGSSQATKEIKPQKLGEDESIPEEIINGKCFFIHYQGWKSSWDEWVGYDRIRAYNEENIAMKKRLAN

[2] = biological target: T2, Eaf3 chromo barrel domain (1–113 aa) (S. cerevisiae, UniProt Q12432 1-113); experiment: NMR titration
T2 sequence (looked up): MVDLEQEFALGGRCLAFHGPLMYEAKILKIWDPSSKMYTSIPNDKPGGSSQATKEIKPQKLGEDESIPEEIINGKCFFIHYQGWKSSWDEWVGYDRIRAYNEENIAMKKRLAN

[3] = Protein stability, precipitation or aggregation of Eaf3 constructs; format: physicochemical; conditions: purified proteins expressed in Escherichia coli or NMR samples
[4] = system: Eaf3 chromo barrel domain and linked H3KC36me2; experiment: 15N-1H HSQC spectra of fused Eaf3-H3C36; format: binding, Saccharomyces cerevisiae; conditions: 15N-1H HSQC before and after dimethylation, 300K, pH 6.7
[5] = Gel filtration chromatography of extended Eaf3; format: physicochemical; conditions: change in gel filtration chromatography retention time (data not shown)
[6] = read-out: dissociation constant (KD), 15N-1H HSQC titration, 15N-labeled Eaf3 (1–113 aa), 300K, 20 mM NaPi pH 6.7, 50 mM NaCl, 1 mM EDTA, 2 mM DTT, range of estimates from amide peaks of two to four selected amino acids, curve fitting

CN(C)C(N)=NCCC[C@H](N)C(=O)O [asymmetrically dimethylated arginine, reference compound]
affinity for Eaf3 (in words) ([1]; 300K): does not have any significant affinity

C[N+](C)(C)CCCC[C@H](N)C(=O)O [trimethyllysine, trimethylated lysine, reference compound]
Kd [1]: 8.6 to 19.2 mM | affinity relative to other methylated ligands (in words) [1]: significantly lower than that measured with trimethylated peptides under similar conditions

ATGGVK36me3KPHRYR [H3K36me3]
affinity for Eaf3 (in words) ([1]; 300K): very low affinity (KD in the millimolar range) | affinity for Eaf3 (in words) ([1]; 300K, listed as methylated H3K36 peptide): millimolar-range affinity | affinity relative to other methylated ligands (in words) [1]: comparable to that determined for the Eaf3-H3K4me3 complex | Kd [1, 6]: 1.8 to 3.4 mM

ATGGVKC36me3KPHRYR (ATGGVCKPHRYR; not fully specified (residue 6)) [H3KC36me3]
affinity relative to other methylated ligands (in words) [1]: only slightly lower than that of the H3K36me3 peptide

KRHRK20me3VLRDN [H4K20me3]
Kd [1, 6]: 3 to 4 mM

B1: H3K36me3 peptide (31–42 aa) (peptide)
peptide: ATGGV[Lys(Me3)]KPHRYR
Kd [2]: 1.8 to 3.4 mM

B2: H3KC36me3 peptide (31–42 aa) (peptide)
peptide: ATGGVCKPHRYR
modifications: not fully specified (residue 6)
Kd [2]: 5 to 7 mM

B3: Eaf3: N-terminal 1–113 aa of budding yeast Eaf3 (protein)
chain: MVDLEQEFALGGRCLAFHGPLMYEAKILKIWDPSSKMYTSIPNDKPGGSSQATKEIKPQKLGEDESIPEEIINGKCFFIHYQGWKSSWDEWVGYDRIRAYNEENIAMKKRLAN
protein stability / precipitation / aggregation (in words) [3]: has a tendency to aggregate

B4: H4K20me3 peptide (16–25 aa) (peptide)
peptide: KRHR[Lys(Me3)]VLRDN
Kd [2]: 3 to 4 mM

B5: H3K4me3 peptide (1–10 aa) (peptide)
peptide: ART[Lys(Me3)]QTARKS
Kd [2]: 1 to 3 mM

B6: Y23A: single-point mutation in Eaf3-H3C36 (protein, UniProt Q12432 1-401, looked up, variant Y23A)
Chromatin …: MVDLEQEFALGGRCLAFHGPLMAEAKILKIWDPSSKMYTSIPNDKPGGSSQATKEIKPQKLGEDESIPEEIINGKCFFIHYQGWKSSWDEWVGYDRIRAYNEENIAMKKRLANEAKEAKKSLLEQQKKKKLSTSLGGPSNGGKRKGDSRSNASISKSTSQSFLTSSVSGRKSGRSSANSLHPGSSLRSSSDQNGNDDRRRSSSLSPNMLHHIAGYPTPKISLQIPIKLKSVLVDDWEYVTKDKKICRLPADVTVEMVLNKYEHEVSQELESPGSQSQLSEYCAGLKLYFDKCLGNMLLYRLERLQYDELLKKSSKDQKPLVPIRIYGAIHLLRLISVLPELISSTTMDLQSCQLLIKQTEDFLVWLLMHVDEYFNDKDPNRSDDALYVNTSSQYEGVALGM
modifications: fused to histone H3 peptide
protein stability / precipitation / aggregation (in words) [3]: unstable and highly prone to precipitation

B7: W88A: single-point mutation in Eaf3-H3C36 (protein, UniProt Q12432 1-401, looked up, variant W88A)
Chromatin …: MVDLEQEFALGGRCLAFHGPLMYEAKILKIWDPSSKMYTSIPNDKPGGSSQATKEIKPQKLGEDESIPEEIINGKCFFIHYQGWKSSADEWVGYDRIRAYNEENIAMKKRLANEAKEAKKSLLEQQKKKKLSTSLGGPSNGGKRKGDSRSNASISKSTSQSFLTSSVSGRKSGRSSANSLHPGSSLRSSSDQNGNDDRRRSSSLSPNMLHHIAGYPTPKISLQIPIKLKSVLVDDWEYVTKDKKICRLPADVTVEMVLNKYEHEVSQELESPGSQSQLSEYCAGLKLYFDKCLGNMLLYRLERLQYDELLKKSSKDQKPLVPIRIYGAIHLLRLISVLPELISSTTMDLQSCQLLIKQTEDFLVWLLMHVDEYFNDKDPNRSDDALYVNTSSQYEGVALGM
modifications: fused to histone H3 peptide
spectral change upon dimethylation of fused H3C36 [4]: Very little spectral change

B8: W84A: single-point mutation in Eaf3-H3C36 (protein, UniProt Q12432 1-401, looked up, variant W84A)
Chromatin …: MVDLEQEFALGGRCLAFHGPLMYEAKILKIWDPSSKMYTSIPNDKPGGSSQATKEIKPQKLGEDESIPEEIINGKCFFIHYQGAKSSWDEWVGYDRIRAYNEENIAMKKRLANEAKEAKKSLLEQQKKKKLSTSLGGPSNGGKRKGDSRSNASISKSTSQSFLTSSVSGRKSGRSSANSLHPGSSLRSSSDQNGNDDRRRSSSLSPNMLHHIAGYPTPKISLQIPIKLKSVLVDDWEYVTKDKKICRLPADVTVEMVLNKYEHEVSQELESPGSQSQLSEYCAGLKLYFDKCLGNMLLYRLERLQYDELLKKSSKDQKPLVPIRIYGAIHLLRLISVLPELISSTTMDLQSCQLLIKQTEDFLVWLLMHVDEYFNDKDPNRSDDALYVNTSSQYEGVALGM
modifications: fused to histone H3 peptide
spectral change upon dimethylation of fused H3C36 [4]: Very little spectral change | protein stability / precipitation / aggregation (in words) [3]: prone to precipitation

B9: Y81A: single-point mutation in Eaf3-H3C36 (protein, UniProt Q12432 1-401, looked up, variant Y81A)
Chromatin …: MVDLEQEFALGGRCLAFHGPLMYEAKILKIWDPSSKMYTSIPNDKPGGSSQATKEIKPQKLGEDESIPEEIINGKCFFIHAQGWKSSWDEWVGYDRIRAYNEENIAMKKRLANEAKEAKKSLLEQQKKKKLSTSLGGPSNGGKRKGDSRSNASISKSTSQSFLTSSVSGRKSGRSSANSLHPGSSLRSSSDQNGNDDRRRSSSLSPNMLHHIAGYPTPKISLQIPIKLKSVLVDDWEYVTKDKKICRLPADVTVEMVLNKYEHEVSQELESPGSQSQLSEYCAGLKLYFDKCLGNMLLYRLERLQYDELLKKSSKDQKPLVPIRIYGAIHLLRLISVLPELISSTTMDLQSCQLLIKQTEDFLVWLLMHVDEYFNDKDPNRSDDALYVNTSSQYEGVALGM
modifications: fused to histone H3 peptide
protein stability / precipitation / aggregation (in words) [3]: unstable and highly prone to precipitation

B10: Eaf3 (1–126 aa): Eaf3 extended by 13 residues (protein)
chain: MVDLEQEFALGGRCLAFHGPLMYEAKILKIWDPSSKMYTSIPNDKPGGSSQATKEIKPQKLGEDESIPEEIINGKCFFIHYQGWKSSWDEWVGYDRIRAYNEENIAMKKRLANEAKEAKKSLLEQQ
oligomerization (in words) [5]: apparent homodimerization
